This note sets out measurements from patent publication US7648703.

The target of the test is Ep-CAM antigen (human pan-carcinoma antigen) (human) (UniProt P16422). Kind of test: antibody binding to HT29 adenocarcinoma cells after 15 minute incubation; drug-treated against control cells.
Sequence of UniProt P16422 (P16422 24-314): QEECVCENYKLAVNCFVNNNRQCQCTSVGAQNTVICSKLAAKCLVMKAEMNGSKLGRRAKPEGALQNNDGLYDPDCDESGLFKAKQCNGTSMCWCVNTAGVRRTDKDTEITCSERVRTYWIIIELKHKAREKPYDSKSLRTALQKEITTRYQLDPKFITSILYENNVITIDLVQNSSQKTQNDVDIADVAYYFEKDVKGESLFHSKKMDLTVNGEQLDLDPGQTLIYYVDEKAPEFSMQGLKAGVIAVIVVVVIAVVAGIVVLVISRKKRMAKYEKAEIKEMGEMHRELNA

B1: Panorex (17-1A mouse monoclonal antibody) (antibody, INN chains, looked up, V domains shown)
VH: QVQLQQSGAELVRPGTSVKVSCKASGYAFTNYLIEWVKQRPGQGLEWIGVINPGSGGTNYNEKFKGKATLTADKSSSTAYMQLSSLTSDDSAVYFCARDGPWFAYWGQGTLVTVSA
VL: NIVMTQSPKSMSMSVGERVTLTCKASENVVTYVSWYQQKPEQSPKLLIYGASNRYTGVPDRFTGSGSATDFTLTISSVQAEDLADYHCGQGYSYPYTFGGGTKLEIK
In the case of B1, the increase in antibody binding (cells treated with Navelbine plus Cisplatin against control cells) was determined as 34% and the increase in antibody binding (cells treated with Taxol against control cells) came out at 8%.
